Test results published in paper PMC11137577, “Unusual OB-fold protein PrgE and its role in conjugation”.

T1: PrgE WT (Enterococcus faecalis (plasmid pCF10), UniProt D1LHE9 1-144)
T1 sequence: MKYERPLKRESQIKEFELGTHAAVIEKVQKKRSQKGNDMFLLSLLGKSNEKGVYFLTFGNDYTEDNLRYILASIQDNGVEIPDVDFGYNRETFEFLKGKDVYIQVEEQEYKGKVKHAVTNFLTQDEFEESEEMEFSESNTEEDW

B1: 60-mer ssDNA (ssDNA)
DNA: CAGTGACAGTCTCCACGGTGAAGCAGTCGTACCTCTTGACGCATGAATAGATATATGTTA
B2: 60-mer dsDNA (dsDNA)
DNA 1: B1 DNA
DNA 2: TAACATATATCTATTCATGCGTCAAGAGGTACGACTGCTTCACCGTGGAGACTGTCACTG
B3: 30-mer dsDNA (dsDNA)
DNA 1: CAGTGACAGTCTCCACGGTGAAGCAGTCGT
DNA 2: ACGACTGCTTCACCGTGGAGACTGTCACTG
B4: Poly-A 60-mer (ssDNA)
DNA: AAAAAAAAAAAAAAAAAAAAAAAAAAAAAAAAAAAAAAAAAAAAAAAAAAAAAAAAAAAA

Experiments:
[1] = molecular target: PrgE (Enterococcus faecalis (plasmid pCF10)); assay: SEC-MALS; 60 μM PrgE, Superdex 200 Increase 10/300 GL, 20 mM Hepes pH 7.5, 300 mM NaCl
PrgE WT [2] = molecular target: T1, PrgE WT; assay: fluorescence anisotropy; 100 mM NaCl; 20 mM Hepes pH 7.5, 50 or 100 mM NaCl, 10 nM FITC-DNA, 0-20 uM protein, 30 min at RT; details: protein: recombinant, tags: C-terminal 10xHis removed with 3C (PreScission) protease, chain copies: 3
PrgE WT [3] = molecular target: T1, PrgE WT; assay: fluorescence anisotropy; 50 mM NaCl; quadratic fit (Hill coefficient ca 1.5 in Hill fit); 20 mM Hepes pH 7.5, 50 or 100 mM NaCl, 10 nM FITC-DNA, 0-20 uM protein, 30 min at RT; details: protein: recombinant; tags: C-terminal 10xHis removed with 3C (PreScission) protease; chain copies: 3; label: 5' FITC; single strand
ΔN-PrgE = ΔN-PrgE (Enterococcus faecalis (plasmid pCF10), UniProt D1LHE9 13-144, del1-12); assay: fluorescence anisotropy; 50 mM NaCl; 20 mM Hepes pH 7.5, 50 or 100 mM NaCl, 10 nM FITC-DNA, 0-20 uM protein, 30 min at RT; details: protein: recombinant, tags: C-terminal 10xHis removed with 3C (PreScission) protease
PrgE WT [4] = molecular target: T1, PrgE WT; assay: as above; details: protein: recombinant, tags: C-terminal 10xHis removed with 3C (PreScission) protease, chain copies: 3
PrgE WT [5] = molecular target: T1, PrgE WT; assay: X-ray crystal structure; 15% PEG 400, 50 mM MES pH 6.5, 80 mM Mg acetate, 15 mM MgCl2; 5 nt per subunit; 20 mM Hepes pH 7.5, 50 or 100 mM NaCl, 10 nM FITC-DNA, 0-20 uM protein, 30 min at RT; details: protein: recombinant; tags: C-terminal 10xHis removed with 3C (PreScission) protease; chain copies: 3; single strand
[6] = label: 5' FITC on strand 1, blunt

| Molecule | Kd (PrgE WT [2]; label: 5' FITC, single strand) [nM] | Kd (ΔN-PrgE; label: 5' FITC, single strand) [nM] | Kd (PrgE WT [2]; [6]) [nM] | Kd (ΔN-PrgE; [6]) [nM] | Kd (PrgE WT [4]; [6]) [nM] | also measured |
| --- | --- | --- | --- | --- | --- | --- |
| PrgE (natural protein) |  |  |  |  |  | stoichiometry N [1]: 3 |
| B1 | 370 ± 10 | 4490 ± 480 |  |  |  | Kd (PrgE WT [3]): 330 ± 20 nM |
| B2 |  |  | 950 ± 30 | 5560 ± 190 | 500 ± 140 |  |
| CAGTGACAGTCTCCACGGTGAAGCAGTCGT (ssDNA) [30-mer ssDNA] | 1840 ± 150 | 3850 ± 490 |  |  |  | Kd (PrgE WT [4]; label: 5' FITC, single strand): 1020 ± 20 nM |
| B3 |  |  | 3360 ± 280 | 4390 ± 240 | 1960 ± 260 |  |
| B4 |  |  |  |  |  | binding result (PrgE WT [5]): binds |
